In publication PMC10557602 (bioRxiv, 2023):

B1: SARS-CoV-2 nsp9 (natural protein)
chain: NNELSPVALRQMSCAAGTTQTACTDDNALAYYNTTKGGRFVLALLSDLQDLKWARFPKSDGTGTIYTELEPPCRFVTDTPKGPKVKYLYFIKGLNNLNRGMVLGSLAATVRLQ
B2: RNAylated-nsp9 (20mer RNA) (natural protein)
chain: B1 chain

Target: SARS-CoV-2 nsp12 (SARS-CoV-2, UniProt P0DTD1)
Assay: cryo-EM structure

Binder	binding result
B1	binds
B2	binds
